Experimental data reported in patent US8198236B2, “Methods and compositions for the treatment of cancer” (Washington University, priority 2007, dated 2012).

Assays:
[1] = Mesd in serum after a single i.p. dose (Western blot quantification); format: in vivo, mice
Protocol: In experiments shown in FIG. 23, pharmacokinetics of Mesd peptide and Mesd were examined. FIG. 23A: Amount of Mesd in serum following a single dose of protein administration. Mice were dosed at 5, 10, 20 mg/kg of Mesd via i.p. and the serum samples were collected from individual mice at the indicated time points. The levels of Mesd in serum were quantified by comparison to Mesd pure protein with known concentrations in Western blot analysis. Values are the average of triple determinations with S.D. indicated by error bars. […] Samples were obtained by terminal bleed under anesthesia at each of the indicated time points (N=3 animals per time point). Radioactivity was measured using a gamma counter and DPM converted to mass units/mL blood using the specific activity (DPM/mass) of each test substance. Data are plotted as mass U/mL of test substance with standard deviation indicated by error bars.

Wnt signaling [2] = assay: Wnt signaling in MMTV-Wnt1 tumors (GST-E-cadherin pull-down, c-Myc expression); format: in vivo, mice; settings: GST-E-cadherin pull-down and c-Myc expression
Protocol: The GST-E-cadherin pulldown assay was performed as previously described (2). Cells expressing control or LRP6 shRNA were treated with L cells or Wnt3a-conditioned media (CM) for 4 h. Free β-catenin was determined using a GST-E-cadherin pull-down assay. Cells were lysed for 30 minutes at 4° C. Protein concentrations in lysates were quantified, and equal quantities of total proteins from different samples were incubated with GST-E-cadherin Sepharose beads for 4 h at 4° C. After incubation, the beads were washed three times and the bound proteins were eluted and separated via SDS-PAGE. Western blotting was performed using antibody to β-catenin.
In these experiments, mice bearing established MMTV-Wnt1 tumor transplants were divided into three groups (five animals per group) and were i.p. injected with PBS (vehicle), Mesd, or Mesd peptide every other day. Tumor volume was analyzed using caliper measurement. Data represent at least three independent experiments and each time point represents the mean tumor volume±SEM. *p<0.05; **p<0.01. […] Scale bar=50 μm.

Wnt signaling [3] = assay: TCF/LEF-luc reporter assay in Wnt-3A-treated HEK293 cells; format: cell-based; settings: Wnt3A conditioned medium plus 500 nM, 16 hours at 37° C.
Protocol: HEK293 cells were plated into six-well plates. For each well, 0.1 μg of the TOP-FLASHTCF luciferase construct (Upstate Biotechnology) was cotransfected with 0.8 μg Mesd-expressing vector, 0.8 μg Mesd mutant-expressing vector, or empty vector. A β-galactosidase-expressing vector (Promega, Madison, Wis.) was included as an internal control for transfection efficiency. After 48 hours, cells were lysed and both luciferase and β-galactosidase activities were determined with enzyme assay kits (Promega). The luciferase activity was determined with a luminometer using the Dual Luciferase Assay system (Promega). Luciferase activity was normalized to the activity of the β-galactosidase.
In these experiments, transfected cells were treated without Wnt-3A or with Wnt-3A plus the indicated inhibitors (Mesd and/or Dkk1) for 16 hours at 37° C. Wnt signaling was measured by quantifying the luciferase activity using a live cell imaging system.

LRP6 = biological target: T1, LRP6 (Homo sapiens, UniProt O75581); assay: LRP6-mediated 125I-DKK1 degradation in LRP6-transduced HT1080 cells; format: cell-based; settings: 500 nM unlabeled, 4 hours at 37° C.
T1 construct: expressed in transfected cells; host or cells: human HT1080 cells, retroviral vector pLNCX2
T1 sequence (O75581 20-1613): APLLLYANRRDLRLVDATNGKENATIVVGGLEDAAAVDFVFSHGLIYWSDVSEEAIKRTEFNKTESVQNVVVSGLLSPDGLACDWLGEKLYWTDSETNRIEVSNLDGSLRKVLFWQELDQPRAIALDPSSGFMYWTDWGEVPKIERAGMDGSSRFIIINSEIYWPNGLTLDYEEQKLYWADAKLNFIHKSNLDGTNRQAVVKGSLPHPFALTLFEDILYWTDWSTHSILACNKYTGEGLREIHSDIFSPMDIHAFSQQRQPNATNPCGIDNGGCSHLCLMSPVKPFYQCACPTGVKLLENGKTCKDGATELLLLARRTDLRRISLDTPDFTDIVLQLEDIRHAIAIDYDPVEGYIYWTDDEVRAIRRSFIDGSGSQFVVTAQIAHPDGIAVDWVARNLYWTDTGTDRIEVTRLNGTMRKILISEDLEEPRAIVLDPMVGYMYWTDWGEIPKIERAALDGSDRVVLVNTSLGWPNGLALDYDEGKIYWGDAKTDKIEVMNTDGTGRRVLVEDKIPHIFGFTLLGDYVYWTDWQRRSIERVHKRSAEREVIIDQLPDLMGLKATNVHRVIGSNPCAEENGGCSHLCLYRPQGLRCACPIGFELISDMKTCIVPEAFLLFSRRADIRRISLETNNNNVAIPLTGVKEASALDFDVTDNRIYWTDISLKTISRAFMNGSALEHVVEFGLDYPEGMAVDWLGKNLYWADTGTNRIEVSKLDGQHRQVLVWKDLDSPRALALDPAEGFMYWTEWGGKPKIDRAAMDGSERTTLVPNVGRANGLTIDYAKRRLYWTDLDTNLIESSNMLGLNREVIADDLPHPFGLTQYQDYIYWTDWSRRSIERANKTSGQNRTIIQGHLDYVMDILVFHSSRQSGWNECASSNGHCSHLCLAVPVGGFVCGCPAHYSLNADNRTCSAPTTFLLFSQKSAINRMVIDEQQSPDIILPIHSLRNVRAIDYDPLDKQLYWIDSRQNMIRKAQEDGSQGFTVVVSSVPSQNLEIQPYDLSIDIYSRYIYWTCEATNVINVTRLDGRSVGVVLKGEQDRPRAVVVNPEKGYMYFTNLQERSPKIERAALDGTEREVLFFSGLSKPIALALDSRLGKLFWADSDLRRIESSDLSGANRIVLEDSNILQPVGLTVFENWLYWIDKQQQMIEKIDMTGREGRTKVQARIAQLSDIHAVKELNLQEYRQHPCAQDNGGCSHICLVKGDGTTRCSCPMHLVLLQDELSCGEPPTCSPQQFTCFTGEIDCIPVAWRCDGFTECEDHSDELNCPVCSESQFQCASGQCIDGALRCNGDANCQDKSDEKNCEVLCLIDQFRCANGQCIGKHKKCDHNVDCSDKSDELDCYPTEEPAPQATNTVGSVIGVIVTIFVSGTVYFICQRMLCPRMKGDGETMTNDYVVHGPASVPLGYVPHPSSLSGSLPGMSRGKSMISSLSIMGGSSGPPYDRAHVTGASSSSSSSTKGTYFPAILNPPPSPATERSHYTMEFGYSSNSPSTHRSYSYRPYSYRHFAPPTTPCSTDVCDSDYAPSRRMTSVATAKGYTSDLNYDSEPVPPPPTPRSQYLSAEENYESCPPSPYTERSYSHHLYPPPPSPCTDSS
Protocol: Ligand degradation was performed using the methods as described in Li, Y., et al., J. Biol. Chem. 275: 17187-17194, 2000. Briefly, 2×10^5 cells were seeded into 12-well dishes 1 day prior to assay. Pre-warmed assay buffer (minimal Eagle's medium containing 0.6% BSA with radioligand, 0.6 ml/well) was added to cell monolayers in the absence or the presence of unlabeled 500 nM RAP or 500 nM Mesd, followed by incubation for 4 hours at 37° C. Thereafter, the medium overlying the cell monolayers was removed and proteins were precipitated by addition of BSA to 10 mg/ml and trichloroacetic acid to 20%. […] After each time point, the plates were quickly placed on ice and the assay buffer was replaced with cold stop/strip solution. ^125I-anti-HA IgG that remained on the cell surface was stripped by incubation of cell monolayers with cold stop/strip solution for a total of 20 minutes (0.75 ml for 10 minutes, twice) and counted. Cell monolayers were then solubilized with low-SDS lysis buffer and counted. […] The fraction of internalized ^125I-anti-HA IgG after each time point was calculated and plotted.
RAP is a receptor antagonist for members of the LDLR family, and is able to inhibit the binding of most known ligands of the LDLR family members. […] Cell-surface-bound Myc-tagged DKK proteins were fixed and detected by immunofluorescence staining with anti-Myc antibody. […]

B1: Mesd: Recombinant full-length mouse Mesd expressed in E. coli, N-terminal polyhistidine tail, lacking the signal peptide (protein)
chain: ADTPGEATPPPRKKKDIRDYNDADMARLLEQWEKDDDIEEGDLPEHKRPSAPIDFSKLDPGKPESILKMTKKGKTLMMFVTVSGNPTEKETEEITSLWQGSLFNANYDVQRFIVGSDRAIFMLRDGSYAWEIKDFLVSQDRCAEVTLEGQMYPGKGGGSKEKNKTKPEKAKKKEGDRKPRASKEDNRAGSRREDL
modifications: left off: small tags and cut ends
notes: Recombinant full-length mouse Mesd expressed in E. coli, N-terminal polyhistidine tail, lacking the signal peptide
Absorption after dosing [1]: rapidly absorbed | Wnt signaling in tumors compared to control treatment (Wnt signaling [2]): decreased Wnt signaling | Inhibition of Wnt signaling (luciferase activity) (Wnt signaling [3]): moderately inhibit | Effect on increased 125I-DKK1 degradation of LRP6-expressing HT1080 cells (LRP6): abolished
